Data: US20230086069A1

Target: cynomolgus CD19 (cynomolgus)
Test: BLI (Octet); cynomolgus CD19

B1: SI-63C2 (recombinant mAb with H1 humanized anti-CD19 variable sequence) (antibody, V domains shown)
VH: QVTLKESGPGLVQPGQTLRLTCAFSGFSLSTSGMGVGWIRQPPGKGLEWLAHIWWDDDKRYNPALKSRLTISKDTSKNQVYLQMNSLDAEDTAVYYCARMELWSYYFDYWGQGTLVTVSS
VL: ENVLTQSPASLSASPGERVTITCSASSSVSYMHWYQQKPGQAPKLWIYDTSKLASGVPSRFSGSGSGNDHTLTISSMEPEDFATYYCFQGSVYPFTFGQGTKLEIKR
  Kd: 3.6 nM
